Test results published in the supplement of paper PMC10567573.

B1: TRIM43 (parent)
chain: YQEIFQQLQRSWVKMDQKSKHLKE
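Note: lentivirally expressed fusions sorted by FACS into six bins by GFP to DsRed ratio, PSI derived from sequencing read proportions per bin multiplied by bin number.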

Variants of: B1
Assay: protein stability index of a GFP-peptide fusion (GPS, HEK-293T) (PSI 1-6); higher = more stable
Conditions: c terminus: a fixed tail appended
Q17Y showed a protein stability index of 1.72. With Q17N the protein stability index was 2.89. In the case of Q17G, the protein stability index is reported as 1.96. Work on Q17F yielded a protein stability index of 2.68. With Q17I the protein stability index was 1.73. Q17E gave a protein stability index of 1.98. With Q17M the protein stability index was 1.73. In the case of Q17P, the protein stability index is reported as 2.21. Variant Q17R has a protein stability index of 2.19. With Q17T the protein stability index was 2.62. Q17D gave a protein stability index of 2.01. In the case of Q17L, the protein stability index is reported as 1.92. Q17H gave a protein stability index of 2.12. Variant Q17S has a protein stability index of 2.29. Q17V gave a protein stability index of 2.17. Q17C gave a protein stability index of 2.05. Q17K showed a protein stability index of 2.1. Q17A showed a protein stability index of 2.1. Work on Q17W yielded a protein stability index of 1.72. D16F gave a protein stability index of 3.17. Variant D16Q has a protein stability index of 2.52. With D16G the protein stability index was 1.76. With D16N the protein stability index was 3.48. D16V gave a protein stability index of 1.69. With D16P the protein stability index was 2.12. For D16I, the protein stability index was 2.51. For D16K, the protein stability index was 2.35. For D16W, the protein stability index was 2.96. For D16H, the protein stability index was 2.73. D16T showed a protein stability index of 2.09. In the case of D16L, the protein stability index is reported as 3.47. D16R gave a protein stability index of 2.2. Work on E24P yielded a protein stability index of 1.81. With E24G the protein stability index was 1.78. Work on E24K yielded a protein stability index of 1.99. Variant E24M has a protein stability index of 1.71. With E24D the protein stability index was 2.48. E24T showed a protein stability index of 1.91. Work on E24F yielded a protein stability index of 1.92. Work on E24Y yielded a protein stability index of 1.95. For E24Q, the protein stability index was 1.57. Variant E24W has a protein stability index of 2.41. Work on E24V yielded a protein stability index of 1.81. In the case of E24A, the protein stability index is reported as 1.89. E24N showed a protein stability index of 2.28. With E24C the protein stability index was 2.13. For E24L, the protein stability index was 2.45. In the case of E24I, the protein stability index is reported as 1.78. For E24R, the protein stability index was 1.8. E24S gave a protein stability index of 2.78. Variant E24H has a protein stability index of 2.33. Work on K23C yielded a protein stability index of 1.74. K23T gave a protein stability index of 2.14. In the case of K23L, the protein stability index is reported as 1.66. Work on K23D yielded a protein stability index of 2.41. Work on K23W yielded a protein stability index of 2.33. For K23N, the protein stability index was 2.03. K23H gave a protein stability index of 1.79. For K23G, the protein stability index was 2.54. K23R showed a protein stability index of 1.22. Variant K23V has a protein stability index of 1.92. For K23S, the protein stability index was 2.15. Variant K23F has a protein stability index of 1.47. Variant K23I has a protein stability index of 3.31. Work on K23M yielded a protein stability index of 2.33. K23A gave a protein stability index of 2.92. With K23E the protein stability index was 2.6. In the case of K23Y, the protein stability index is reported as 1.58. Work on K23Q yielded a protein stability index of 2.11. Variant K23P has a protein stability index of 2.08. With L22F the protein stability index was 1.91. L22R showed a protein stability index of 2.75. Work on L22Y yielded a protein stability index of 1.92. L22K gave a protein stability index of 2.45. L22W gave a protein stability index of 1.65. L22D showed a protein stability index of 3.28. In the case of L22M, the protein stability index is reported as 2.13. For L22I, the protein stability index was 2.21. With L22E the protein stability index was 3.27. L22P showed a protein stability index of 2.94. In the case of L22G, the protein stability index is reported as 2.6. With L22N the protein stability index was 2.53. With L22H the protein stability index was 2.35. Variant L22C has a protein stability index of 2.6. In the case of L22S, the protein stability index is reported as 3.29. With L22A the protein stability index was 2.22. In the case of L22Q, the protein stability index is reported as 2.91. In the case of L22V, the protein stability index is reported as 2.39. Variant L22T has a protein stability index of 2.62. For K20V, the protein stability index was 1.94. K20A showed a protein stability index of 2.74. Variant K20G has a protein stability index of 2.31. Work on K20W yielded a protein stability index of 2.42. Work on K20Y yielded a protein stability index of 1.68. K20C gave a protein stability index of 1.76. Work on K20T yielded a protein stability index of 1.86. Variant K20S has a protein stability index of 1.85. In the case of K20L, the protein stability index is reported as 1.82. K20R gave a protein stability index of 1.59. In the case of K20M, the protein stability index is reported as 2.24. Work on K20I yielded a protein stability index of 1.95. K20H showed a protein stability index of 2.19. With K20Q the protein stability index was 2.36. K20F gave a protein stability index of 2.56. Work on K20N yielded a protein stability index of 2.44. Variant K20E has a protein stability index of 2.85. For K20D, the protein stability index was 2. K20P gave a protein stability index of 2.48. For K18L, the protein stability index was 2.31. K18M gave a protein stability index of 1.64. Work on K18Q yielded a protein stability index of 2.4. Work on K18E yielded a protein stability index of 2.46. With K18A the protein stability index was 2.4. Variant K18P has a protein stability index of 2.1. For K18H, the protein stability index was 2.04. K18D showed a protein stability index of 2.87. In the case of K18R, the protein stability index is reported as 2.57. Work on K18I yielded a protein stability index of 1.37. For K18F, the protein stability index was 1.44. With K18G the protein stability index was 2.4. In the case of K18N, the protein stability index is reported as 2.34. For K18Y, the protein stability index was 1.86. K18C gave a protein stability index of 1.94. In the case of K18T, the protein stability index is reported as 2.71. Work on K18S yielded a protein stability index of 2. For K18W, the protein stability index was 1.77. K18V gave a protein stability index of 1.69. Variant H21R has a protein stability index of 2.53. H21N gave a protein stability index of 2.59. With H21G the protein stability index was 2.33. H21P showed a protein stability index of 1.64. For H21K, the protein stability index was 2.04. H21Y gave a protein stability index of 2.27. Work on H21F yielded a protein stability index of 1.94. H21V showed a protein stability index of 1.79. In the case of H21I, the protein stability index is reported as 2.09. Variant H21W has a protein stability index of 1.53. H21A showed a protein stability index of 2.23. Variant H21M has a protein stability index of 2.5. Variant H21T has a protein stability index of 2.28. Work on H21D yielded a protein stability index of 2.56. H21E showed a protein stability index of 2.68. H21C showed a protein stability index of 2.65. For H21Q, the protein stability index was 2.28. In the case of H21S, the protein stability index is reported as 2.37. H21L gave a protein stability index of 1.91. Work on S19W yielded a protein stability index of 2.56. Variant S19T has a protein stability index of 2.86. For S19D, the protein stability index was 2.68. With S19Y the protein stability index was 3. For S19I, the protein stability index was 3.05. In the case of S19H, the protein stability index is reported as 1.83. Variant S19E has a protein stability index of 2.29. In the case of S19A, the protein stability index is reported as 3.09. S19P showed a protein stability index of 2.3. Variant S19R has a protein stability index of 1.98. S19V gave a protein stability index of 2.12. Work on S19Q yielded a protein stability index of 2.14. S19N showed a protein stability index of 2.35. In the case of S19C, the protein stability index is reported as 1.99. Variant S19L has a protein stability index of 3.31. In the case of S19F, the protein stability index is reported as 1.95. For S19G, the protein stability index was 1.86. In the case of S19M, the protein stability index is reported as 2.44. For S19K, the protein stability index was 1.77.
